Consider three molecules from paper PMC6107761, “Preferential Binding of Mg^2+ Over Ca^2+ to CIB2 Triggers an Allosteric Switch Impaired in Usher Syndrome Type 1J” (Frontiers in Molecular Neuroscience, 2018).

B1: human wild type calcium and integrin binding protein 2 (CIB2) (natural protein, UniProt O75838-1 1-187, looked up)
chain: MGNKQTIFTEEQLDNYQDCTFFNKKDILKLHSRFYELAPNLVPMDYRKSPIVHVPMSLIIQMPELRENPFKERIVAAFSEDGEGNLTFNDFVDMFSVLCESAPRELKANYAFKIYDFNTDNFICKEDLELTLARLTKSELDEEEVVLVCDKVIEEADLDGDGKLGFADFEDMIAKAPDFLSTFHIRI
notes: 21.6 kDa; complete cDNA; Non-covalent dimer by SEC, Ferguson plots and DLS under reducing conditions; Tag removed by TEV protease; also called WT CIB2; WT; source: E. coli BL21 DE3, purified (His-trap, TEV cleavage, second His-trap flow-through); not shown: 6xHis, N-terminal, cleaved
B2: peptide of the membrane proximal segment of the cytoplasmic domain of α7B integrin, residues 1101-1116 (peptide)
peptide: Ac-LLLWKMGFFKRAKHPE-NH2
notes: Integrin α7B, membrane proximal segment of the cytoplasmic domain, residues 1101-1116 of Uniprot entry Q13683; source: synthetic peptide (GenScript)
B3: human E64D CIB2 (natural protein, UniProt O75838-1 1-187, looked up)
chain: B1 chain with E64D
notes: point mutation E64D made by site-directed mutagenesis on the complete cDNA; variant associated with Usher syndrome type 1J / non-syndromic hearing loss; After elution treated as the WT protein (TEV cleavage of the His tag); Dimer by SEC and Ferguson plots; also called p.E64D; USH1J-related variant; not shown: 6xHis, N-terminal, cleaved

Where a chain is given by its changes, count along the chain named. Numbers in names are those of the source.

The target in data set [1] is B2. Briefly: other fluorescence titration; Trp emission spectra of 4 μM peptide alone and with fixed concentrations of WT CIB2 (8 μM for α7B_M; 2, 4 and 8 μM for Scrb); 20 mM Hepes, 150 mM KCl, 1 mM DTT pH 7.5, 37°C, 1 mM Mg2+ and 1 mM Ca2+. The conditions noted are these: both partners purified.
The target in data set [2] is B2. Briefly: other fluorescence titration; 4 μM α7B_M peptide titrated with increasing CIB2; blue shift of the peptide's Trp emission peak (excitation 295 nm); 20 mM Hepes, 150 mM KCl, 1 mM DTT pH 7.5, 37°C, 1 mM Mg2+ and 1 mM Ca2+; apparent Kd. The conditions noted are these: both partners purified.
Data set [3] has as its target B1. Described as above. The conditions noted are these: both partners purified.
The data set “human E64D CIB2” addresses B3. Described as above. The settings on record: both partners purified.
Data set [4] concerns the molecule itself. Briefly: SEC; analytical SEC, Superose 12 10/300GL; 20 mM Tris pH 7.5, 150 mM KCl, 1 mM DTT with 3 mM EGTA or 2 mM EGTA + 3 mM Mg2+ or 3 mM Mg2+ + 2 mM Ca2+; WT 100 μM, E64D 70 μM; MW from a calibration plot. On the technique in general: In gel filtration, larger molecules generally elute earlier.

Regarding B1, the “fold increase in the maximal fluorescence emission of the peptide” value in data set [1] was found to be 1.7 fold. Further, the “stoichiometry N” value in data set [2] is 2 CIB2 chains per peptide.
Take B2: the Kd worked out at 4.99 µM in data set [3] and 3.1 µM with human E64D CIB2.
Turning to B3, the “stoichiometry N” value is 2 in data set [4] and 2 CIB2 chains per peptide in data set [2].

The term stoichiometry N denotes a count of units in the complex or per binding partner.
